Positions count from the first letter of the chain named. Names may count otherwise. Like-named read-outs stand apart in the source and are kept apart here.
B1: 3C (Fab) (Fab, V domains shown)
VH: QVQLQESGPGLVKPSETLSLTCTVSGFSLIGYDLNWIRQPPGKGLEWIGIIWGDGTTDYNSAVKSRVTISKDTSKNQFSLKLSSVTAADTAVYYCARGGYWYATSYYFDYWGQGTLVTVS
VL: DIQMTQSPSSLSASVGDRVTITCRASQSISNNLNWYQQKPGKAPKLLIYYTSRFHSGVPSRFSGSGSGTDFTFTISSLQPEDIATYYCQQERTLPYTFGQGTKLEIKR
B2: H19-L129 (Fab, V domains shown)
VH: B1 VH with W101Y, A103G
VL: B1 VL with E91S, R92K
B3: 8L2-6D5 (CDR-grafted antibody with framework mutation V71K) (Fab, V domains shown)
VH: B1 VH with L34I, I50M, V63L, W101Y, A103G
VL: B1 VL with S28D, N32H, T51I, E91S, R92K
B4: antibody E3 (Fab) (Fab, V domains shown)
VH: B1 VH
VL: B1 VL with R92H

Tests used:
Assay in all cases: cell-based or functional assay
[1] = target: T1, rat NGF (rat, UniProt P25427 122-241, limits assumed)
[2] = target: human NGF (human, UniProt P01138 122-241, limits assumed)
[3] = target: T1, rat NGF; remark: listed apart in the source
[4] = target: T1, rat NGF; remark: listed apart in the source

Chain of human NGF (P01138 122-241 limits assumed): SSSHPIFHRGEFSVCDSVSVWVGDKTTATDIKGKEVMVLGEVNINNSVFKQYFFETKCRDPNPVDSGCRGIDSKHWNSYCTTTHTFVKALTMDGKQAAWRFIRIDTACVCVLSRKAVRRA
T1 sequence (P25427 122-241 limits assumed): as the sequence (P01138 122-241 limits assumed) above, with S3T, I6V, R9M, M37T, D60A, D65E, M92T, G94D, V117A, A120G counted along it

Molecule	IC50, inhibition of rat NGF-dependent survival of mouse E13.5 trigeminal neurons, 1.5 pM NGF [1] [pM]	IC50, inhibition of rat NGF-dependent survival of mouse E13.5 trigeminal neurons, 15 pM NGF [1] [pM]	IC50, inhibition of human NGF-dependent survival of mouse E13.5 trigeminal neurons, 1.5 pM NGF [2] [pM]	IC50, inhibition of human NGF-dependent survival of mouse E13.5 trigeminal neurons, 15 pM NGF [2] [pM]	IC50, inhibition of rat NGF-dependent survival of mouse E13.5 trigeminal neurons, 1.5 pM NGF [3] [pM]	IC50, inhibition of rat NGF-dependent survival of mouse E13.5 trigeminal neurons, 15 pM NGF [3] [pM]	IC50, inhibition of NGF-dependent survival of mouse E13.5 trigeminal neurons, 15 pM rat NGF [4] [pM]
mouse antibody 911 (Fab)	34.6	161	63.5	322	–	–	–
B1	–	–	5.6	80.9	6	31.6	–
B2	–	–	9.6	60.1	6	31	–
B3	–	–	462	1580	169	730	–
B4	–	–	< 1.2	< 21	< 1.3	< 8.3	~31.6
